Measured values: US6861578B1, “Method for plant protection against insects or nematodes by transformation with a nucleic acid encoding equistatin” (Plant Research International B.V., priority 1997, dated 2005)

How the values were obtained:
[1] = tested on: Colorado potato beetle larval gut extracts (potato protease inhibitor-insensitive cysteine proteases); assay: General proteolytic activity of Colorado potato beetle larval gut extracts, azocasein; format: biochemical, Leptinotarsa decemlineata
Text: (§1) Guts of final instar Colorado potato beetle larvae reared on methyl jasmonate induced plants were isolated and extracted essentially as described (Bolter and Jongsma, J. Insect Physiol. 41: 1071-1078). In these gut extracts the proteases that are sensitive to the protease inhibitors of potato are already complexed. The residual protease activity is composed of potato protease-inhibitor-insensitive proteases which were induced in response to the methyl jasmonate induced potato inhibitors. These proteases are the proteases that render the beetle larvae insensitive to protease inhibitor defense of the potato plant. Wle tested a broad range of different cysteisie protease inhibitors for activity specifically against these induced potato protease inhibitor-insensitive cysteine protesses. Nearly all of these inhibitors were purified at the Jozef Stefan Institute in Slovenia. Testing their potential against Colorado potato beetle was done using both general protein substrates (azocasein, table 2) as well as specific synthetic substrates (L-Arg-pNA, table 3; pGlu-Phe-Leu-pNA, table 4; Z-Phe-Arg-pNA, table 5; Z-Arg-Arg-pNA, table 6). In specific cases inhibitors were tested at two concentrations, eauimolar and in excess to the protease, in order to obtain an indication of the tightness of the complex. […] Importantly, this class of inhibitors was capable of inhibiting nearly all general cysteine protease activity. The equistatin peptide molecule and a functional derivative thereof were not very active against the aminopeptidase-like cysteine protease activity. […] The best combination of inhibitors for full toxicity against the Colorado potato beetle would therefore be a combination of equistatin or p41 invariant chain fragment and stefin-like inhibitors.

[2] = tested on: amino-peptidase activity of Colorado potato beetle larval gut extracts; assay: Amino-peptidase activity of Colorado potato beetle gut extract, L-Arg-pNA; format: biochemical, Leptinotarsa decemlineata
Text: as §1

papain = molecular target: T1, papain (Carica papaya, UniProt P00784); assay: Kinetic analysis of papain inactivation (continuous rate assay); format: biochemical
T1 sequence (P00784 134-345): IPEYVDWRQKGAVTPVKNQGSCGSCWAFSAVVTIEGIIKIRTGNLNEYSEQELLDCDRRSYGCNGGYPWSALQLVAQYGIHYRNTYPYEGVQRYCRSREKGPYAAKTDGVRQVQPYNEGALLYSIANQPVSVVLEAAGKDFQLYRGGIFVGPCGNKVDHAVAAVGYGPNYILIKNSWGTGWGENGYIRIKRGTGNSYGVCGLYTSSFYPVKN

[3] = tested on: Colorado potato beetle larvae; assay: Toxicity of equistatin painted on potato leaves towards Colorado potato beetle larvae; format: in vivo, Leptinotarsa decemlineata
Experimental: Potato tubers of cultivar Surprise (Solanum tuberosum) were sprouted. Sprouted tubers were planted in 1 l pots and grown for 3-4 weeks at a 22/18° C., 16/8 hr day night rhythm. Plants 10-15 cm high were placed in glass jars together with a paper wick on which 2 ul methyl jasmonate was pipeted. Jars were sealed immediately with parafilm and placed in a climate chamber of 30° C. with continuous light. Control plants were placed in a chamber of 25° C. with a 16-8 hr day night rhythm. After one day at 30° C. plants were taken from the jars and placed in the same chamber as the control. Plants were used on day 3. Freshly treated plants were used for each subsequent day of feeding. […] The top meristems were removed from the plants and painted on both sides with a 175 μM solution of recombinant equistatin in 0.3% agar obtained by mixing 1:1 a stock solution of 350 μM equistatin with 0.6% water agar. Controls were painted with 0.3% water agar. The agar solution was applied at a concentration of 30 μl/cm2.
The final concentration on the leaf was estimated to be 70 μM which is equivalent to 1.4 mg/g leaf. Painted leaves were placed in a tube containing 0.4% agar and out on top of a filterpaper inside a petridish. 21-26 newly hatched Colorado potato beetle larvae were placed on the leaves and the petridish was put in an incubator set at 28° C. Everyday fresh painted leaves replaced the old ones.

[4] = tested on: western corn rootworm cysteine and aspartic protease activity; assay: Protease activity of western corn rootworm larval gut extract, FITC-hemoglobin; format: biochemical, Diabrotica virgifera; design: inhibition of protease activity: concentration or dose not given beside the values; conditions: for residual protease activity: recombinant equistatin; for inhibition of protease activity: western corn rootworm
Experimental: Adult western flower thrips (Frankliniella occidentalis) and leafmirer flies (Liriomyza trifolii) adult were harvested from a culture maintained on chrysanthemum plants and complete thrips and flies were homogenized in extraction on buffer (200 mM β-alanine-HCl, pH 3.5) in a volume of 5 times the weight of the insects. The buffer pH was at the previously determined pH optimum of protease activity towards hemoglobin. Final instar Colorado potato beetle larvae maintained on potato plants as described in example 5 were checked for gut aspartic protease activity by preparing a total gut extract in pH 3 buffer which is optimal for Colorado potato beetle aspartic proteases (200 mM glycine, pH 3). Guts were homogenized in 100 μl buffer per gut. Third instar western corn rootworm larvae maintained on corn roots were used to remove the guts. Ten guts were homogenized in 100 μl water and spinned twice to remove insoluble material. Two types of buffers were used in the enzymatic assay. One with a pH presumably favoring cysteine proteases (50 mM MES, pH 6.5; 0.6 mg/ml L-cysteine) and one for detecting aspartic proteases (200 mM glycine, pH 3). Supernatants were stored at −20° C.
2 μl gut extract was combined with 2 μl inhibitor (2 mM pepstatin in methanol, 4 mM E64 in water, 2 mg/ml recombinant equistatin in water. The concentration of the other proteinaceous inhibitors was not known exactly). Appropriate buffers were added to a final volume of 100 μl. After 15′ preincubation 20 μl substrate (5 mg/ml FITC-hemoglobin) was added and incubated for 30-45 min at 37 C.
Reaction was stopped by the addition of 100 μl 10% TCA. Tubes were centrifuged and 100 μl supernatant mixed with 100 μl 10 N NaOH was measured on a fluorimeter for the extent of hemoglobin hydrolysis. Measurements were done in duplicate on one (thrips, leafminer and western corn rootworm), or three (Colorado potato beetle) different gut extracts and varied by a maximum of +/−5%.

[5] = recombinant equistatin on MeJa treated plants
[6] = recombinant equistatin on control plants
[7] = recombinant equistatin on methyl jasmonate (MeJa) treated plants

B1: equistatin: cysteine/aspartic protease inhibitor from sea anemone Actinia equina with three type I repeated thyroglobulin domains; purified or recombinant from E. coli (protein)
chain: SLTKCQQLQASANSGLIGTYVPQCKETGEFEEKQCWGSTGYCWCVDEDGKEILGTKIRGSPDCSRRKAALTLCQMMQAIIVNVPGWCGPPSCKADGSFDEVQCCASNGECYCVDKKGKELEGTRQQGRPTCERHLSECEEARIKAHSNSLRVEMFVPECLEDGSYNPVQCWPSTGYCWCVDEGGVKVPGSDVRFKRPTC
modifications: left off: large carriers; small tags and cut ends
notes: purified or recombinant from E. coli
Residual activity in excess of inhibitor [1]: 10% | % of residual activity, equimolar ([2]; equimolar): 85% | % of residual activity, excess inhibitor ([2]; excess inhibitor): 75% | Ki (papain; Ki calculated from the ratio kd/ka): 0.57 ± 0.04 nM | 10^4 × kd (papain; continuous rate assay, printed value is 10^4 × kd): 65 ± 1.5 s^−1 | 10^−6 × ka (papain; continuous rate assay, printed value is 10^−6 × ka): 12 ± 0.6 M^−1 s^−1 | percent mortality, day 1 [3, 5]: 0% | percent mortality, day 2 [3, 5]: 23% | percent mortality, day 3 [3, 5]: 77% | percent mortality, day 4 [3, 5]: 92% | percent mortality, day 1 [3, 6]: 0% | percent mortality, day 2 [3, 6]: 10% | Larval weight, day 3 [3, 6]: 0.5 mg/larvae | percent mortality, day 3 [3, 6]: 52% | Larval weight, day 4 [3, 6]: 0.7 mg/larvae | percent mortality, day 4 [3, 6]: 76% | Larval weight, day 3 [3, 7]: n.g. | Larval weight, day 4 [3, 7]: n.g. | residual protease activity ([4]; western corn rootworm pH 3): 2% | residual protease activity ([4]; western corn rootworm pH 6.5): 7% | inhibition of protease activity ([4]; pH 3): 98% | inhibition of protease activity ([4]; pH 6.5): 93%
